# Laboratory results: US20110243962A1 (GENEURO, published 2011)
# T1: MSRV ENV surface domain fragment (ENV-SU), recombinant from E. coli (MSRV (Multiple Sclerosis associated …))
# T1 chain: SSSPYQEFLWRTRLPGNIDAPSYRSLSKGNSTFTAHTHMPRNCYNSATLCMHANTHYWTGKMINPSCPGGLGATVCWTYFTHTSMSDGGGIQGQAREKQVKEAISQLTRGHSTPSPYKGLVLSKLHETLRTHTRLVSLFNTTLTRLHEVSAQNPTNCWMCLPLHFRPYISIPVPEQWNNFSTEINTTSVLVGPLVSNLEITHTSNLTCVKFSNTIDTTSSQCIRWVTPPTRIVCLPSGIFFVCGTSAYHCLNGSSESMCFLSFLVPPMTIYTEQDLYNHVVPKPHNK
# B1: Chimeric GNb AC1 IgG4 (human IgG4 constant regions with murine VH and VL) (antibody, V domains shown)
# VH: QVQLQQSGAELVRPGASVTLSCKASGYTFTDYEMHWVKQTPVHGLEWIGAVAPETGGTAYNQKFKGKATLTAAKSSSTAYMELRSLTSEDSAVYYCTSTVVPFAYWGQGTLVTVSA
# VL: QIVLTQSPAIMSASPGEKVTISCSASSSVSYMYWYQQKPGSSPKAWIYRTSNLASGVPGRFSGSGSGTSYSLTISSMEAEDAATYYCQQYQSLPLTFGSGTKLEIKR
# notes: also called GNbAC1 chimeric IgG4; GNbAC1-IgC4
# Molecular target: T1, MSRV ENV surface domain fragment …
# Assay: cell-based or functional assay
binder,measurement,value
B1,"IFN-g at 72 h in PBMC culture with ENV-SU 0.5 ug/ml, MAb ratio 10/1 (no antibody: 336)",384
